We go through 14 sequences from the supplement of paper PMC10201428.

± gives the standard deviation of the averaged measurements.

The data set deals with VchCAST RNA-guided transposition machinery (E. coli BL21(DE3) host, lacZ target). The data set can be described thus: relative integration efficiency (T-RL orientation) vs wild-type transposon end (log2 (normalized fold change)); transposon end mutated: left end; higher = more efficient transposition. The protocol: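 Pooled, barcoded VchCAST (Tn6677) mini-transposon donor libraries; each variable transposon-end sequence sits in a fixed pDonor mini-transposon context (10-bp barcode and cargo not included). Left- or right-end libraries were co-transformed with pEffector (TniQ-Cascade, TnsABC, lacZ crRNA, T7, 0.1 mM IPTG) into E. coli BL21(DE3) and grown 18 h at 37 C. T-LR and T-RL junction amplicons were sequenced; output/input barcode fold change was normalised to the mean of four wild-type barcodes and log2-transformed. Two biological replicates; zero-count/undetected variants carry floor values (-10 / -15), censored here. Barcode uncoupling by PCR recombination adds noise.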

With “AATGTTGTTGATGCAAAACGCCCTGTCGCGGGCCGCCGGCGGGCGCCGACTACCAGGCCAACACCCCACCAACGCGCGGTCGCGAGACACCCCACCAACGCCTGGTCGCGGGGGTGTCCGATCTGATTTCAGCAAAACTACTGCAGTAAGAA”, the “relative integration efficiency (log2)” value is < -10.

Consider “AATGTTGTTGATGCAACCATAAAATGATAATTAATAATTATTTATAATCAGCAACTTAACCACAAAATAATTATCATTTTATGGTTGACAAAACAACCATAAAATGATAATTATGTGAATCGAGTATTTCAGCAAAACTACTGCAGTAAGAA”, for which the “relative integration efficiency (log2)” value is -5.2 ± 1.6.

As to “AATGTTGTTGATGCAACCATAAAGGTCGCGGGCCGCCGGCGGGCGCCGACTACCAGGCCAACACCCCACCAACGCGCGGTCGCGAGACACCCCACCAACGCCTGGTCGCGGGGGTGTCCGATCTGATTTCAGCAAAACTACTGCAGTAAGAA”, the “relative integration efficiency (log2)” value is < -10.

As to “AATGTTGTTGATGCAACCATAAAGTGAATAAATATAATTATTTATAATCAGCAACTTAACCACAAAACAACCATATATTGAATAGAGACAAAACAACCATAAGTTGAATAAAATGTGAATCGAGTATTTCAGCAAAACTACTGCAGTAAGAA”, the “relative integration efficiency (log2)” value was -4.14 ± 1.6.

In the case of “AATGTTGTTGATGCAACCATAAAGTGAGCGGGCCGCCGGCGGGCGCCGACTACCAGGCCAACACCCCACCAACGCGCGGTCGCGAGACACCCCACCAACGCCTGGTCGCGGGGGTGTCCGATCTGATTTCAGCAAAACTACTGCAGTAAGAA”, the “relative integration efficiency (log2)” value is -8.13 ± 0.57.

Turning to “AATGTTGTTGATGCAACCATAAAGTGATATAATTATTTATAATCAGCAACTTAACCACAAAACAACCATATATTGATATCTCACAAAACAACCATAAGTTGATATTTTTGTGAATCGAGTATTTCAGCAAAACTACTGCAGTAAGAAAGTTA”, the “relative integration efficiency (log2)” value was -6.82 ± 0.68.

As for “AATGTTGTTGATGCAACCATAAAGTGATATTATAATTATTTATAATCAGCAACTTAACCACAAAACAACCATATATTGATATCTCACAAAACAACCATAAGTTGATATTTTTGTGAATCGAGTATTTCAGCAAAACTACTGCAGTAAGAAAG”, the “relative integration efficiency (log2)” value was -5.22 ± 1.1.

On to “AATGTTGTTGATGCAACCATAAAGTGATATTTAAGAATTATGTCGTTCTAAACAAGAGATATTAGAACAACCATATATTGATATCTCACAAAACAACCATAAGTTGATATTTTTGTGAATCGAGTATTTCAGCAAAACTACTGCAGTAAGAA”, for which the “relative integration efficiency (log2)” value was -4.29 ± 1.2.

With “AATGTTGTTGATGCAACCATAAAGTGATATTTAATAACTTCGTATAGCATACATTATACGAAGTTATCAACCATATATTGATATCTCACAAAACAACCATAAGTTGATATTTTTGTGAATCGAGTATTTCAGCAAAACTACTGCAGTAAGAA”, the “relative integration efficiency (log2)” value was -4.52 ± 0.95.

With “AATGTTGTTGATGCAACCATAAAGTGATATTTAATAACTTCGTATAGTATACCTTATACGAAGTTATCAACCATATATTGATATCTCACAAAACAACCATAAGTTGATATTTTTGTGAATCGAGTATTTCAGCAAAACTACTGCAGTAAGAA”, the “relative integration efficiency (log2)” value was -3.19 ± 0.87.

Consider “AATGTTGTTGATGCAACCATAAAGTGATATTTAATAATTACAACCATAAAGTGATATTTAACTTAACCAACCATATATTGATATCTCACAAAACAACCATAAGTTGATATTTTTGTGAATCGAGTATTTCAGCAAAACTACTGCAGTAAGAA”, for which the “relative integration efficiency (log2)” value is -7.98 ± 1.5.

Turning to “AATGTTGTTGATGCAACCATAAAGTGATATTTAATAATTATCAACCATATATTGATATCTCACAAAACAACCATAAGTTGATATTTTTGTGAATCGAGTATTTCAGCAAAACTACTGCAGTAAGAAAGTTACTTCGTGGTATGGGAGGATCA”, the “relative integration efficiency (log2)” value is -7.99 ± 0.76.

Turning to “AATGTTGTTGATGCAACCATAAAGTGATATTTAATAATTATGGCGCCGACTACCAGGCCAACACCCCACCAACGCGCGGTCGCGAGACACCCCACCAACGCCTGGTCGCGGGGGTGTCCGATCTGATTTCAGCAAAACTACTGCAGTAAGAA”, the “relative integration efficiency (log2)” value was -6.86 ± 1.3.

As to “AATGTTGTTGATGCAACCATAAAGTGATATTTAATAATTATTCAACCATAAAGTGATATTTAACTTACAACCATATATTGATATCTCACAAAACAACCATAAGTTGATATTTTTGTGAATCGAGTATTTCAGCAAAACTACTGCAGTAAGAA”, the “relative integration efficiency (log2)” value is -3.81 ± 1.1.
